In publication PMC3893232 one finds % monomer data, which are given here for two substances.

Data set [1] in a line: SEC.
The nature of data set [2]: SEC. This is another data set of the same source. (In gel filtration, larger molecules generally elute earlier.)

Like-named read-outs stand apart in the source and are kept apart here.

Take IgG1-Y407A: the % monomer in “SEC [1]” is 1%; in the data set “SEC [2]”, 5%.

In the case of “IgG1-Y407E (natural mixture of HL and (HL)2)”, the % monomer in the data set “SEC [1]” was 90%; in the data set “SEC [2]”, 95%.
